{
  "source": "patent US12714676B2",
  "about": "“Compositions and methods for targeted delivery of therapeutics using carriers” (VESSELON, INC., priority 2020, dated 2026)",
  "key": {"[1]": {"conditions": "in the human body; cited from earlier work"}, "[2]": {"conditions": "cited from earlier work"}, "[3]": {"conditions": "patients, package insert; cited from earlier work"}, "[4]": {"assay": "HT29 xenograft, bevacizumab-awwb concentration in excised tumors (HPLC)", "assay_type": "in vivo, athymic nude mice", "conditions": "Day 3", "protocol": "A non-GLP study was conducted (Metis Labs, Ronkonkoma, NY, USA) using Imagent microbubbles, a human monoclonal antibody and ultrasound with a TE7 and P4-2S probe (Mindray North America, New Jersey, USA); settings used were 2.2 MHz frequency, 0.35 and 0.70 mechanical indexes (MI) during insonation, once every 10 seconds, a microbubble destruct pulse of 1.3 MI lasting 1,100 milliseconds was applied. Total insonation time of 5 minutes per animal was used. Imagent was conjugated with bevacizumab-awwb (Mvasi®, Amgen, Thousand Oaks, CA, USA) (“eBev”) in HT29 human colorectal carcinoma model.\nThirty-six athymic nude mice (The Jackson Laboratory, Bar Harbor, ME, USA) were randomized into 9 groups of 4 mice and once tumor volumes reached ~200 mm^3, the mice were treated once on day 1. Animals were euthanized on Day 3. The bevacizumab-awwb (either eBev or free bevacizumab-awwb) dose was 100 μL of either a 25:1, 50:1, or 5:1 dilution, depending on the experimental arm, via intravenous administration (i.v.) via jugular vein catheter (Instech One Channel Mouse Button, Instech, Plymouth Meeting, PA, USA). […]"}},
  "data": [
    {"compound": "O=C1[O][Pt]2([NH][C@@H]3CCCC[C@H]3[NH]2)[O]C1=O", "note": "[Oxaliplatin]", "values": [
      {"measurement": "half-life", "setting": "[1]", "result": "about 14 minutes"}
    ]},
    {"compound": "FC(F)(F)C(F)(F)C(F)(F)C(F)(F)C(F)(F)C(F)(F)F", "note": "[Perfluorohexane]", "values": [
      {"measurement": "water solubility, times lower than octafluoropropane", "setting": "[2]", "result": 704, "unit": "times"},
      {"measurement": "water solubility, times lower than sulfur hexafluoride", "setting": "[2]", "result": "1,000 times"}
    ]},
    {"compound": "Avastin: recombinant humanized monoclonal IgG1 antibody, vascular endothelial growth factor inhibitor", "values": [
      {"measurement": "Grade 3-5 hemorrhagic events", "setting": "[3]", "result": "0.4-7.0%"},
      {"measurement": "Grades 3-4 hypertension", "setting": "[3]", "result": "5-18%"},
      {"measurement": "Grades 3-5 Arterial Thromboembolic Events", "setting": "[3]", "result": 5, "unit": "%"},
      {"measurement": "gastrointestinal perforations", "setting": "[3]", "result": "0.3-3.0%"},
      {"measurement": "ovarian failure", "setting": "[3]", "result": 34, "unit": "%"},
      {"measurement": "proteinuria", "setting": "[3]", "result": 20, "unit": "%"}
    ]},
    {"compound": "bevacizumab-awwb: bevacizumab-awwb (Mvasi, Amgen), human monoclonal antibody", "values": [
      {"measurement": "mean concentration of bevacizumab-awwb as measured in the tumors", "setting": "[4]; Group 2: free bevacizumab-awwb only, 25:1 dilution, i.v.", "result": "around 3 μg"},
      {"measurement": "mean concentration of bevacizumab-awwb as measured in the tumors", "setting": "[4]; Groups 3a-3d: free bevacizumab-awwb 25:1 co-administered with Imagent microbubbles + ultrasound", "result": "around 3 μg"}
    ]}
  ]
}
